B1: TPR 5TU (parent)
chain: GGAUCUUCUCGAUCUAACAAAAAAGACAAAUCUGCCACAAAGCUUGAGAGCAUCUUCGGAUGCAGAGGCGGCAGCCUUCGGUGGCGCGAUAGCGCCAACGUUCUCAACUAUGACACGCAAAACGCGUGCUCCGUUGAAUGGAGUUUAUCAUG

This sample holds only a part of the variants without activity.

The variants in this series derive from B1. The series is described as follows: polymerase ribozyme fitness, log enrichment relative to wild type (log ratio); higher = more active; in vitro selection for triplet polymerase activity. A digest of the protocol:
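Fitness compares each genotype's enrichment to that of the wild type on a logarithmic scale, averaging replicates with inverse-variance weights. The logarithm is base 2. Enrichment came from Illumina sequencing of input and output libraries after one triplicate round of in vitro selection, which included frozen incubation at −7 °C, of PCR-built, transcribed mutant libraries of each subunit of a heterodimeric triplet polymerase ribozyme. Only genotypes with ≥10 input reads and ≥1 read per output were kept.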
On to GGAUCUUCUCGAUCUAACAAAGAAGACAAAUCUGCCACAAAGCUUGAGAGCAUCUUCGCAUGCAGAGGCGGCAGGCUUCGGUGGCGCGAUAGCGCCAACGUUCUCAAGUAUGACACGCAAAACGCGUGCUCCGUUGAGUGGAGUUUAUCAUG [A22G G59C C75G C108G A138G], for which the “polymerase ribozyme fitness (log ratio)” value was ≤ -4.2. The same measure for GGAUCUUCUCGAUCUAACAAAAAAGAUAAAUCUGCCACAAAGCUUAAGAGCAUUUUCGGAUGCAGAGGCGGCAGCCUUCGGUGGGGCGAUAGCGCCAACGUUCUCAACUAUGACACGCAAAACGCGUGCUCCGUUGAAUGGAGUUUAUCAUG [C27U G46A C54U C85G]: -3.63; for GGAUCUUCUCGAUCUAACAAAAAAGUCAAAUCUGCCACAAAGCUUGAGAGCAUGUUCGGAUGCAGAGGCGGCAGCCUUCGGUGGCGGGAUAGCGCCAACGUUCUCGACUAUGACACGCAAAACGCGUGCGCCGUUGAAUGGAGUUUAUCAUG [A26U C54G C87G A106G U130G]: ≤ -4.2.

As for GGAUCUUCUCGAUCUAACAAAAAAGACAAAUCUGCCACAAAGCUUGAGAGCAUCUUCGGAUGCAGAGGCGGCAGCCUUCGGUGGCUCGAUAGCGCCAACGUUCUCAACUAUGACACGCAAAACGCGUGCUCCGUUGAAUGGAGUUUAUCAUU [G86U G152U], the “polymerase ribozyme fitness (log ratio)” value was ≤ -4.2. With GGAUCUUCUCGAUCUAACAAAAACGACAAACCGGCCACAAAGCUUGAGAGCAUCUUCGGAUGCAGAGGCGGCAGCGUUCGGUGGUGCGAUAGCGCCAACGUUCUCAACUAUGACACGCAAAACGGGUGCUCCGUUGAAUGGAGUUUAUCAUG [A24C U31C U33G C76G C85U C125G], the “polymerase ribozyme fitness (log ratio)” value is ≤ -4.2. In the case of GGAUCUUAUCGAUCUAACAAAAAAGACAAAUCUGCCACAAAGCUUGAGAGCAUCUUCGGAUGCAGAUGCGGCAGCCAUCGGUUGCGGGAUAGCGCCAACGUUCUCAACUAUGACACGCAAAACGCGUGCUCCGAUGAAUGCAGGUUAUCAUG [C8A G67U U77A G83U C87G U134A G141C U144G] it was ≤ -4.2; in that of GGAUCUUCUCGAUCUAACAAAAAAGACAAAUCUGCCACAGAGCUUGAGAGCAUCUUCGGAUGCAGAGGCGGCAGCCUUCGGUGCCGCGAUAGCGCCAACGUUCUCAACGAUGACACGCUAAACGCGUGCUCCGUUGAAAUGAGUUUAUCAUU [A40G G84C U109G A119U U139A G140U G152U], ≤ -4.2. With GGAUCUUCUCGAUCUAACAAAAAAGACAAAUCUGCCACAAAGCUUGAGAGCAUCUUCGGACGCAGAGGCGGCAGCCUUCGAUGGCGCGAUAGCGCCAACGUUCUCAACUAUGACACGCAAAACGCGUGCUCCGUUGAAUGGAGUUUAUCAUG [U61C G81A], the “polymerase ribozyme fitness (log ratio)” value was -2.36. The same measure for GGAUCUUCUCGAUCUAACAAAAAAGACAAAUCUGCCACAAAGCUUGAGAGAAUCUUCGGAUGCAGAGGCGGCAGCCUUCGGUGGCGCGAUAGCGCCAACGUUCUCAACUAUGACACGCAAAACGCGUGCUCCGUUGAAUGGAGUUUAUCAUG [C51A]: -0.687. The same measure for GGAUCUUCUCGAUCUAACAAAAAAGACAAAUCUGCCACAAAGCUUGAGAGCAUCUUCGGAUGUAGAGGCGGCAGCCUUCGGUGGAGCGAUAGCGCCAACGUUCUCAACUAUGACACGCAAAACGCGUGCUCCGUUGAAUGGAGUUUAUCAUG [C63U C85A]: -3.57; for GGAUCUUCUCGAUCUAACAAAAAAGACAAAUCUGCCACAAAGCUUGAGAGCAUCUUCCGAUGCAGAGGCGGCAGCCUUCGGUGGCGCGAUAGCGCCAACGUUCUCAACUAUGACAUGCAAAACGCGUGCUCCGUUGAAUGGAGUUUAUCAUG [G58C C116U]: 0.354; for GGAUCUUCUCGAUCUAACAAAAAAGACAAAUCUGCCACAAAGCUUGAGAGCAUCUACGGAUGCAGAGGCGGCAGCCUUCGGUGGCGCGAUAGCGCAAACGUUCUCAACUAUGACACGCAAAACGCGUGCUCCGUUGAAUGGAGUUUAUCAUG [U56A C96A]: -0.833. For GGAUCUUCUCGAUCUAACAAAAAAGACAAAUCUGCCACAAAGCUUGAGACCAUCUUCGGAUGCAGAGGCGGCAGCCUUCGGUGGCGCGAUAGCGCCAUCGUUCUCAACUAUGACACGCAAAACGCGUGCUCCGUUGAAUGGAGUUUAUCAUG [G50C A98U], the “polymerase ribozyme fitness (log ratio)” value is -2.38.

Regarding GGAUCUUCUCGAUCUAACAAAAAAGACAAAUCUGCCAGAAAGCUUGAGAACAUCUUCCGGUGCAGAGGCGGCAGCCUUCGGUGGCGCGAUAGCGCCAACGUUCUCAACUAUGACACGCAAAACGCGUGCUCCGUUGAAUGGAGUGUAUCAUG [C38G G50A G58C A60G U145G], the “polymerase ribozyme fitness (log ratio)” value is ≤ -4.2. The same measure for GGAUCUUCUCGAUCUAACAAAAAAGACAAAUCUGCCACAAAGCUUGAGAGCAACUUCGGAUGCAGAGGCGGCGGCCUCCGGUGGCGCGAUAGCGCCAACGUUCUCAACUAUGACACGCAAAACGCGUGCUCCAUUGAAUGGAGUUUAUCAUG [U53A A73G U78C G133A]: ≤ -4.2; for GGAUCUUCUUGAUCUAACAAAAAAGACAAAUAUGCCAGAAAGAUUGAGAGCAUCUUCGGAUGCAGAGGCGGCAGCCUUCGGUAGCGCGAUUGCGGCUACGUUCUCAACUAUGACACGCAAAACGCGUGCUCCGUUGAAUGGAGGUUAUCAUG [C10U C32A C38G C43A G83A A91U C95G A97U U144G]: ≤ -4.2. The same measure for GGAUCUUCUCGAUCUAACAAAAAAGACAAAUCUGCCACACAGCUUGAGAGCAUCUUCGGAUGCAGAGGUGGCAGCCUUCGGUGGCGCGAUUGCGCAAACGUUCUCAACUAUGACACGCGAAACGCGUGCUCCGAUGAAUGGUGUUUAUCAUG [A40C C69U A91U C96A A119G U134A A142U]: ≤ -4.2; for GGAUCUUCUCGAUCUAACAAAAAAGACAAAUCUGCCACAAAGCUUGAGAGCAUCUUCGGAUGCAGAGGCGGCAGCCUUCGGUGGUGCGAUAGCGCCUACGUUCUCAACUAUGACACGCAAAACGCGUGCUCCGUUGAAUGGAGUUUAUCAUG [C85U A97U]: -2.44. The same measure for GGAUCUUCUCGUUCUACCAAAAAGGACAAAUCUGCCACAAAGCUUGAGAGCAUCUUCGGAUGCAGAGGCGGCAGCCUUUGGUGGCGCGAUAGCGCCAACGUUCUCAACUAUGACACGUAAAACGCGUGCUCCGUUGAAUGGAGUUUAUCAUG [A12U A17C A24G C79U C118U]: ≤ -4.2.

The record behind these values is the RNAGym collection of RNA variant scans (doi:10.1073/pnas.2313332121).
